The values that follow come from publication PMC7641770, “Novel polyadenylylation-dependent neutralization mechanism of the HEPN/MNT toxin/antitoxin system” (Nucleic Acids Research, 2020).

Positions count from the first letter of the chain named. In names and notes the source's numbering stands.

The data set “crystal structure” concerns the molecule itself. In words: crystal structure.
The target in data set [1] is T1, MntA antitoxin (SO_3165) of Shewanella oneidensis, untagged (Shewanella oneidensis, UniProt Q8ECH7 1-139).
T1 construct: also called MNT antitoxin; native MntA
In words: pull-down. Particulars: partners not purified.

Data set [2] deals with the molecule itself. In words: crystal structure; co-expressed complex purified (Superdex 200, 20 mM Tris pH 8.0, 150 mM NaCl), sitting drop vapor diffusion at 16°C; (HepT)6-(MntA)2 hetero-octamer.
Data set [3] addresses T1, MntA antitoxin (SO_3165) of Shewanella …. The description is as above. The conditions noted are these: both partners purified.
The target of data set [4] is MntA D39E,D41E (SO_3165) of Shewanella oneidensis, untagged (Shewanella oneidensis, UniProt Q8ECH7 1-139, D39E | D41E). In words: crystal structure. The conditions noted are these: both partners purified.

B1: HepT toxin (SO_3166) of Shewanella oneidensis, C-terminal His6 tag, polyadenylylated at Y104 by co-produced MntA (natural protein, UniProt Q8ECH6 1-133, looked up)
chain: MNDIIINKIATIKRCIKRIQQVYGDGSQFKQDFTLQDSVILNLQRCCEACIDIANHINRQQQLGIPQSSRDSFTLLAQNNLITQPLSDNLKKMVGLRNIAVHDYQELNLDIVVHVVQHHLEDFEQFIDVIKAE
notes: also called HEPN toxin; modified HepT
As for B1, the binding result (in “crystal structure”; in data set [1]) was “binds” each time.

B2: HepT Y104A (SO_3166) of Shewanella oneidensis, C-terminal His6 tag (natural protein, UniProt Q8ECH6 1-133, looked up)
chain: B1 chain with Y104A
notes: also called unmodified HepT^Y104A
Regarding B2, the binding result in data set [2] and in data set [3] was “binds” each time.

B3: HepT toxin (SO_3166) of Shewanella oneidensis, C-terminal His6 tag, unmodified (co-produced with an inactive MntA variant) (natural protein, UniProt Q8ECH6 1-133, looked up)
chain: B1 chain
notes: also called unmodified HepT
On to B3, for which the binding result in data set [4] is listed as “binds”.
